Results from the supplement of paper PMC12764529.
± gives the half width of the 95% confidence interval.

Experiments:
[1] = folding stability dG unfold from trypsin proteolysis; higher = more stable
Outline: (§1)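 Sequencing followed digestion of designed mini-proteins with trypsin and chymotrypsin, each at 11 concentrations in threefold dilutions together with a no-protease condition. The mini-proteins were under 80 residues, had no cysteine, sat in a PA-tagged cDNA display construct, and were kept only if AlphaFold2 dimer inter-PAE was above 15. From the counts, Bayesian fitting gave K50, and unfolding free energy was derived against a sequence-predicted unfolded-state K50 and a shared folded-state K50, per protease or combined.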

[2] = folding stability dG unfold (combined trypsin and chymotrypsin); higher = more stable
Outline: as §1

[3] = folding stability dG unfold from chymotrypsin proteolysis; higher = more stable
Outline: as §1

| Sequence | folding stability dG unfold [1] | folding stability dG unfold [2] | folding stability dG unfold [3] |
| --- | --- | --- | --- |
| SAGGSAGGSAGDENEKPKPKMQMKMIQIKFPPEDLPELAEEFGIDSVHIMPNGSLFIMVYSAGGSAGGSAGG [r11_64_TrROS] | 1.07 ± 0.11 kcal/mol | 1.36 ± 0.18 kcal/mol | 1.48 ± 0.1 kcal/mol |
| SAGATPTTLSFTDPEGKKIANVTVTVLPGGRQEASITNSDSNESYTAEYDPATGTWTLTFPDGTTLTVGSAG [r5_809_JUSTAS] | 1.15 ± 0.039 kcal/mol | 1.58 ± 0.059 kcal/mol | 1.75 ± 0.032 kcal/mol |
| SPKVTLTLEGKVITFPAPLAEKLLGELQRKGYKVKILSVEPDPETDEIYLVMEVEPLKPPPLPPPNPLLESA [r9_448_TrMRF] | 1.16 ± 0.14 kcal/mol | 2.05 ± 0.35 kcal/mol | 2.28 ± 0.062 kcal/mol |
| SMKVTVTVERLPDGRGRITITINDSTLEIEVPPGLDPEELRAFAEETAKEIEEKLKEEGNPVTIEEITLSSA [r9_751_JUSTAS] | 2.58 ± 0.14 kcal/mol | 2.15 ± 0.24 kcal/mol | 1.61 ± 0.14 kcal/mol |
| SAGGSAGGGMGPASFYIVTVDPNNPNVTKVESLSPSVDISLYRKKPFPIKTFSASNIEKLLKELSAGGSAGG [r6_864_JUSTAS] | 0.334 ± 0.12 kcal/mol | 0.619 ± 0.11 kcal/mol | 0.791 ± 0.18 kcal/mol |
| SAGGMVDVTITFTKPDGTPETRPIPASSLPLEELVARIRALREAGVEAEVELPPSLPEEVREALARLLSAGG [r13_251_JUSTAS] | 1.78 ± 0.039 kcal/mol | 1.96 ± 0.053 kcal/mol | 2.09 ± 0.071 kcal/mol |
| SASLVPTEREFELPGGERLRVTTPLDPNSDTPTVTVEKFTEAPDGTVTSTTTTVPPSEVAAVLEALGLRSAG [r14_416_JUSTAS] | 0.664 ± 0.023 kcal/mol | 0.423 ± 0.052 kcal/mol | 0.147 ± 0.045 kcal/mol |
| SAGKKIDPEALAKRILKEFGLPEDAEVEVEEIENTYIARFPEATALFTIEDDEVTVFLAPARPEPELAGSAG [r5_190_TrMRF] | 0.984 ± 0.11 kcal/mol | 0.881 ± 0.18 kcal/mol | 0.598 ± 0.18 kcal/mol |
| SAGGSAGGMVTVPVPKDKPLNPVATVKLPDGSTIPAGPVAVDLEKGTATLEVPEPAEVIVEVNPSAGGSAGG [r6_180_JUSTAS] | 0.0542 ± 0.08 kcal/mol | 1.01 ± 0.037 kcal/mol | 1.36 ± 0.023 kcal/mol |
| SAGGSAGGSAGGWIFIIEIDPDNGEIKINWPNGNSIKIPPEDLDNMPIEIKPIPPPPNDKSAGGSAGGSAGG [r7_99_TrROS] | 1.83 ± 0.19 kcal/mol | 1.87 ± 0.28 kcal/mol | 1.88 ± 0.097 kcal/mol |
| SAGSVTVTETKTEGDKETITMTRPETGETVEEKITKKNGKVKVTKTYYSPSGVKLGSSEKVLSESELLLSAG [r5_308_JUSTAS] | -0.0129 ± 0.18 kcal/mol | -0.0136 ± 0.26 kcal/mol | -0.195 ± 0.33 kcal/mol |
| SAGGSAKKKVTITVEKKGDKYLVTIEVDGKTVVIEVPKDTTIEEIAAALPPGAKIKEIKVVKAEELSAGGSA [r15_1058_TrROS_Hall] | 0.716 ± 0.034 kcal/mol | 1.16 ± 0.067 kcal/mol | 1.33 ± 0.031 kcal/mol |
| SAGGSAGIAKKNNLTLKVTVEKKGDKLLVTVEITYPDGTKKTITIELNIKLVPEVPPVHPDEPGFGSAGGSA [r15_843_TrMRF] | 2.58 ± 0.17 kcal/mol | 2.81 ± 0.095 kcal/mol | 2.83 ± 0.1 kcal/mol |
| SAGGSAGGSAGGSMIVEEDPVGPEKVTTVTLPEKDKLVTVTETFLPDGSVVTTTTPVPSSAGGSAGGSAGGS [r4_332_JUSTAS] | 1.8 ± 0.17 kcal/mol | 1.96 ± 0.13 kcal/mol | 2 ± 0.25 kcal/mol |
| SAGGAEQAREILKEWGFEISEVDPKKKTVQVTPPESGMPISIDVDEPGQIKIKIRMNGKPRTFEIPPSAGGS [r16_197_TrROS] | -0.329 ± 0.24 kcal/mol | -0.215 ± 0.22 kcal/mol | -0.634 ± 0.87 kcal/mol |
| SAGGKVKIVKIEIEEVDGKLKIRIVVEVDTPEDLEALKKAGVKKLKVEKRRLPNGRLLVVIEVEVEVKSAGG [r13_506_TrROS_Hall] | 2.46 ± 0.077 kcal/mol | 3.42 ± 0.062 kcal/mol | 3.86 ± 0.074 kcal/mol |

| Sequence | folding stability dG unfold [1] | folding stability dG unfold [2] | folding stability dG unfold [3] |
| --- | --- | --- | --- |
| SAGGSAGGMKITVEEDPATNRLTITIEVDGHTVTIVYDKDNPNKITVTVSPNMTKDEILKALKSSAGGSAGG [r6_195_TrROS_Hall] | 1.67 ± 0.052 kcal/mol | 2.17 ± 0.095 kcal/mol | 2.43 ± 0.034 kcal/mol |
| SAGGKPLTVEDAKELAESLAKPLKEELGLGNVKILAAPVEVGGEEGKPAEVRIGFLFDLSEDGEFVGSAGGS [r16_751_TrMRF] | -0.405 ± 0.31 kcal/mol | -0.112 ± 0.23 kcal/mol | 0.0162 ± 0.16 kcal/mol |
| STIRITLPKEELSPELLEALAKAPGLSEEELRDRLTVEEVDGEVVITLSPEVLEELRKRNPELLEALEKASA [r9_160_TrROS_Hall] | 3.32 ± 0.093 kcal/mol | 2.59 ± 0.11 kcal/mol | 1.91 ± 0.054 kcal/mol |
| SASSFPPGSTATLTVRVTDPAGTATTTLTIPLSVDPSTGKAVSLEEVYEILKELGVDPANVTITSLTVSSAG [r14_93_JUSTAS] | 3.07 ± 0.088 kcal/mol | 3.07 ± 0.08 kcal/mol | 3.143 ± 0.024 kcal/mol |
| SEKPPKVKIVSVEYNPETGTVTITVEVEPGQKVRIFVRNSDGSVQEIDLESKTITINLPPGAEIVRIEVLSA [r9_113_TrROS_Hall] | 3.9 ± 0.23 kcal/mol | 4.09 ± 0.14 kcal/mol | 4.16 ± 0.12 kcal/mol |
| IETGEYDIEIELPAPNGYKVKVKFKFVKVDPENGKVYVEVELEVTLPGGKPIKLPLRLVMPAEEIKKFLESS [r1_371_TrMRF] | 2.98 ± 0.072 kcal/mol | 4.64 ± 0.092 kcal/mol | 4.94 ± 0.053 kcal/mol |
| GSARFEASAFLAELPFPPQRVLVVLVRGEDGRVRLFVFFPDGSVVEFDLETGRVVRVIDLPDAPLPPGLLES [r1_409_TrMRF] | 2.9 ± 0.071 kcal/mol | 3.39 ± 0.12 kcal/mol | 3.63 ± 0.075 kcal/mol |
| SAGGMELLGEVTVEKPGKPITFPIYRVPDEPREVVEVRELDPSTGKWTPIGTRELPPGEAERAIEELSAGGS [r8_423_JUSTAS] | 0.36 ± 0.08 kcal/mol | 0.544 ± 0.16 kcal/mol | 0.573 ± 0.17 kcal/mol |
| SAGGIWIPIDRIREALKDGMPLDEIVDKLRKHGFPIDRITGIEPSPNSWTIEIEFPEQGMPIEIQISSAGGS [r8_179_TrROS] | 1.93 ± 0.052 kcal/mol | 1.9 ± 0.085 kcal/mol | 1.66 ± 0.035 kcal/mol |
| SAGSMKTVVRVEKEVDPSTGKITITEEIEDKVYTTTMDLNPETGDATSTVTYPDSTIGTTTVPISSISSSAG [r5_415_JUSTAS] | -0.155 ± 0.024 kcal/mol | 0.432 ± 0.067 kcal/mol | 0.706 ± 0.052 kcal/mol |
| SMKYVKILLTLKGKPHVITIPSSLSLEEIIDKAIEFAKELGYKDIPKEELKILKVEENPDEEGSSSIIIGSA [r9_1053_TrMRF] | 3.48 ± 0.2 kcal/mol | 3.61 ± 0.14 kcal/mol | 3.74 ± 0.042 kcal/mol |
| SAGGSAGGSAGGSMKITKTLIPETGLYKVTITLPGGKPVEIEAPPSSSLEEVKKKAEKLSAGGSAGGSAGGS [r4_205_JUSTAS] | -0.116 ± 0.12 kcal/mol | -0.145 ± 0.26 kcal/mol | -0.169 ± 0.26 kcal/mol |
| SAGGSAGGSMTETVEKAPDGTPVLVLKETEESTGDGGKTILRPSTVLLPPGTVLSTEDEVILESAGGSAGGS [r12_581_JUSTAS] | 0.944 ± 0.069 kcal/mol | 1.52 ± 0.072 kcal/mol | 1.83 ± 0.071 kcal/mol |
| SAGGSDKEEKEKEIDIRIVQVPWDDARELAEESDDPVIFMLPDGHIHIFKGDGKVEPFPIPDPEEFSAGGSA [r2_34_TrROS] | -0.288 ± 0.071 kcal/mol | 0.0224 ± 0.12 kcal/mol | 0.199 ± 0.15 kcal/mol |
| SAGGSAGGSAGGSGMTLSVTVLEEKPERLPNGGTIITRTVRIPETGEVIEEVTYEPGALSAGGSAGGSAGGS [r4_94_JUSTAS] | -0.594 ± 0.17 kcal/mol | -0.092 ± 0.085 kcal/mol | 0.0529 ± 0.058 kcal/mol |
